Molecular target: T1, recombinant His-tagged PRMT5 (human, UniProt O14744-1 1-637)
T1 construct: Protein arginine methyltransferase 5 (PRMT5), full length, NM_006109.4; Cloned in pET28a; also called His-PRMT5; His-RMT5; source: bacterial expression, purified
Assay: pull-down; 50 ug GST or GST-FAM47E on glutathione sepharose 4B, blocked with 5% BSA; 25 ug His-PRMT5 in 10 mM Tris, 150 mM NaCl, 0.5 mM EDTA, 0.1% NP40, 3 h at 4°C; washed with 300 mM NaCl, 0.5% NP40; probed with His antibody
Settings: both partners purified

T1 sequence (O14744 whole entry): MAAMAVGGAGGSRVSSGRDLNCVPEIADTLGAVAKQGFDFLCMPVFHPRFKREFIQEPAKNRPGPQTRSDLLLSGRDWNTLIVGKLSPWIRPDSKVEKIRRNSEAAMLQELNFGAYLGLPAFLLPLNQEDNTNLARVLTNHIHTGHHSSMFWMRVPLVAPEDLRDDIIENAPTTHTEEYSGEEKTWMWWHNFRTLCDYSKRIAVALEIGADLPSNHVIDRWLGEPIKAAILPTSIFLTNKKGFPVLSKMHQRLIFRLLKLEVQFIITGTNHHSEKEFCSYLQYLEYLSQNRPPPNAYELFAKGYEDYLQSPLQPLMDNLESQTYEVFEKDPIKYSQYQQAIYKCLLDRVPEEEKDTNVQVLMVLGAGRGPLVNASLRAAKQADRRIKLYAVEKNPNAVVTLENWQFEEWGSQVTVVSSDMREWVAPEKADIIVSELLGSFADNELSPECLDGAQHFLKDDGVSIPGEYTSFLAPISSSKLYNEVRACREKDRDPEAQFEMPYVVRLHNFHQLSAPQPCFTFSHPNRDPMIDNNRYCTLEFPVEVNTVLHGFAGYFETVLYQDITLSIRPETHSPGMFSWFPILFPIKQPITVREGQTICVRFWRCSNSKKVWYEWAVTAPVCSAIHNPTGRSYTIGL

- binding result: binds
B1: recombinant GST-tagged FAM47E (natural protein, human, UniProt Q6ZV65-2 1-295, looked up)
chain: MQMSVPCVLSSLQNHEPNKPLFTTQSQLLSKVLEVLDPDRKLEDTWAYCQDTRKGMKEPTKLLKKHSTQVYLGPSKKTSVSNAGQWLYEEKPHKMDLLHENGPRPGLHENVCKAVSDFCKWVTTFGISDIDEEFILKQFDIDYETKPSHDALHTMKLNQVPLELKRSVGLSKLQETEFFQKLGYERKLQKPQNPYKPKWVKMRYGAWYLNPKLWKKQRVDEPLVDPEVSHKAQEENFKKELQEQEELLADLHGTVAFKDFILSRGYRTPRFLENMYIGKECKRACNKTPIKRTQA
notes: Cloned in pGEX-6P2; also called GST-FAM47E; pGEX-FAM47E; source: bacterial expression, purified
